Where a chain is given by its changes, count along the chain named.
B1: TN9.4 (ssRNA)
RNA: GGGAGGACGAUGCGGAACAAUGCACUCGUCGCCGUAAUGGAUGUUUUGCUCCCUG
modifications: 2'-F C and U; 3'-3' cap
B2: TN9 (ssRNA)
RNA: GGGAGGACGAUGCGGAACAAUGCACUCGUCGCCGUAAUGGAUGUUUUGCUCCCUGCAGACGACUCGCCCGA
modifications: 2'-F C and U
B3: TN41 (ssRNA)
RNA: GGGAGGACGAUGCGGUUAAGUCUCGGUUGAAUGCCCAUCCCAGAUCCCCCUGACCCAGACGACUCGCCCGA
modifications: 2'-F C and U
B4: TN7 (ssRNA)
RNA: GGGAGGACGAUGCGGAACACUUUCCCAUGCGUCGCCAUACCGGAUAUAUUGCUCCCAGACGACUCGCCCGA
modifications: 2'-F C and U
B5: TN21 (ssRNA)
RNA: GGGAGGACGAUGCGGACUGGACCAAACCGUCGCCGAUACCCGGAUACUUUGCUCCCAGACGACUCGCCCGA
modifications: 2'-F C and U
B6: E9P2-2 (ssRNA)
RNA: GGGAGGACGAUGCGGUGCCCACUAUGCGUGCCGAAAAACAUUUCCCCCUCUACCCCAGACGACUCGCCCGA
modifications: 2'-F C and U
B7: E9P2-1 (ssRNA)
RNA: GGGAGGACGAUGCGGUGCCCAUAGAAGCGUGCCGCUAAUGCUAACGCCCUCCCCCAGACGACUCGCCCGA
modifications: 2'-F C and U
B8: TN29 (ssRNA)
RNA: GGGAGGACGAUGCGGCCAACCUCAUUUUGACACUUCGCCGCACCUAAUUGCCCCCAGACGACUCGCCCGA
modifications: 2'-F C and U
B9: TN11 (ssRNA)
RNA: GGGAGGACGAUGCGGCAAUCAAAACUCACGUUAUUCCCUCAUCUAUUAGCUUCCCCAGACGACUCGCCCGA
modifications: 2'-F C and U
B10: TN14 (ssRNA)
RNA: GGGAGGACGAUGCGGCAAACGAUCACUUACCUUUCCUGCAUCUGCUAGCCUCCCCCAGACGACUCGCCCGA
modifications: 2'-F C and U
B11: TN44 (ssRNA)
RNA: GGGAGGACGAUGCGGACGCCAGCCAUUGACCCUCGCUUCCACUAUUCCAUCCCCCCAGACGACUCGCCCGA
modifications: 2'-F C and U
B12: TN32 (ssRNA)
RNA: GGGAGGACGAUGCGGCAACCUCAAUCUUGACAUUUCCCGCACCUAAAUUUGCCCCCAGACGACUCGCCCGA
modifications: 2'-F C and U
B13: TN4 (ssRNA)
RNA: GGGAGGACGAUGCGGCAACCUCGAAAGACUUUUCCCGCAUCACUGUGUACUCCCCCAGACGACUCGCCCGA
modifications: 2'-F C and U
B14: TN45 (ssRNA)
RNA: GGGAGGACGAUGCGGCAAUCUCCGAAAAAGACUCUUCCUGCAUCCUCUCACCCCCCAGACGACUCGCCCGA
modifications: 2'-F C and U
B15: TN9.4M135G9 (ssRNA)
RNA: B1 RNA
modifications: 2'-F C and U; 2'-OMe purines of sectors 1,3,5 plus G9; 5' hexyl amine; 3'-3' cap
B16: TN9.4Me (ssRNA)
RNA: B1 RNA
modifications: 2'-F C and U; 2'-OMe all purines; 3'-3' cap
B17: TN9.4M1 (ssRNA)
RNA: B1 RNA
modifications: 2'-F C and U; 2'-OMe G1,G2,G3,A4,G5,G55; 3'-3' cap
B18: TN9.4M135G12G14 (ssRNA)
RNA: B1 RNA
modifications: 2'-F C and U; 2'-OMe purines of sectors 1,3,5 plus G12,G14; 5' hexyl amine; 3'-3' cap
B19: TN9.4M135G28 (ssRNA)
RNA: B1 RNA
modifications: 2'-F C and U; 2'-OMe purines of sectors 1,3,5 plus G28; 5' hexyl amine; 3'-3' cap
B20: TN9.4M135G6 (ssRNA)
RNA: B1 RNA
modifications: 2'-F C and U; 2'-OMe purines of sectors 1,3,5 plus G6; 5' hexyl amine; 3'-3' cap
B21: TN9.4M135A10 (ssRNA)
RNA: B1 RNA
modifications: 2'-F C and U; 2'-OMe purines of sectors 1,3,5 plus A10; 5' hexyl amine; 3'-3' cap
B22: TN9.4M2 (ssRNA)
RNA: B1 RNA
modifications: 2'-F C and U; 2'-OMe G6,A7,G9,A10,G12,G14; 3'-3' cap
B23: TN9.4M135G31 (ssRNA)
RNA: B1 RNA
modifications: 2'-F C and U; 2'-OMe purines of sectors 1,3,5 plus G31; 5' hexyl amine; 3'-3' cap
B24: TN9.4M135A7 (ssRNA)
RNA: B1 RNA
modifications: 2'-F C and U; 2'-OMe purines of sectors 1,3,5 plus A7; 5' hexyl amine; 3'-3' cap
B25: TN9.4M135G34 (ssRNA)
RNA: B1 RNA
modifications: 2'-F C and U; 2'-OMe purines of sectors 1,3,5 plus G34; 5' hexyl amine; 3'-3' cap
B26: TN9.4M3 (ssRNA)
RNA: B1 RNA
modifications: 2'-F C and U; 2'-OMe G15,A16,A17,A19,A20,G22,A24; 3'-3' cap
B27: TN9.4M5 (ssRNA)
RNA: B1 RNA
modifications: 2'-F C and U; 2'-OMe A36,A37,G39,G40,A41,G43,G48; 3'-3' cap
B28: TN9.4M1235 (ssRNA)
RNA: B1 RNA
modifications: 2'-F C and U; 2'-OMe purines of sectors 1,2,3,5 (G28,G31,G34 2'-OH); 5' hexyl amine; 3'-3' cap
B29: TN18 (ssRNA)
RNA: GGGAGGACGAUGCGGUCGACCUCGAAUGACUCUCCACCUAUCUAACAUCCCCCCCCAGACGACUCGCCCGA
modifications: 2'-F C and U
B30: TN27 (ssRNA)
RNA: GGGAGGACGAUGCGGAAACCAACCGUUGACCACCUUUUCGUUUCCGGAAAGUCCCCAGACGACUCGCCCGA
modifications: 2'-F C and U
B31: TN24 (ssRNA)
RNA: GGGAGGACGAUGCGGGACCAACUAAACUGUUCGAAAGCUGGAACAUGUCCUGACGCCAGACGACUCGCCCGA
modifications: 2'-F C and U
B32: TN22 (ssRNA)
RNA: B13 RNA with A25U
modifications: 2'-F C and U

Biological target: T1, Tenascin-C (Homo sapiens, UniProt P24821 P24821:23-2201)
Assay: filter; unit printed as nN
Conditions: tags: Chemicon (Temecula, CA)
Text: (§1) Oligonucleotide synthesis procedures were standard for those skilled in the art (Green L S, Jellinek D, Bell C, Beebe L A, Feistner B D, Gill S C, Jucker F M, Janjic N. Chem Biol 1995 Oct.;2(10):683-95). 2′-fluoro pyrimidine phosphoramidite monomers were obtained from JBL Scientific (San Luis Obispo, Calif.); 2′-OMe purine, 2′-OH purine, hexyl amine, and (CH₂CH₂O)₆ monomers, along with the dT polystyrene solid support, were obtained from Glen Research (Sterling, Va.). Aptamer affinities were determined using nitrocellulose filter partitioning (Green et al., supra).

T1 sequence (P24821 23-2201, one chain of several): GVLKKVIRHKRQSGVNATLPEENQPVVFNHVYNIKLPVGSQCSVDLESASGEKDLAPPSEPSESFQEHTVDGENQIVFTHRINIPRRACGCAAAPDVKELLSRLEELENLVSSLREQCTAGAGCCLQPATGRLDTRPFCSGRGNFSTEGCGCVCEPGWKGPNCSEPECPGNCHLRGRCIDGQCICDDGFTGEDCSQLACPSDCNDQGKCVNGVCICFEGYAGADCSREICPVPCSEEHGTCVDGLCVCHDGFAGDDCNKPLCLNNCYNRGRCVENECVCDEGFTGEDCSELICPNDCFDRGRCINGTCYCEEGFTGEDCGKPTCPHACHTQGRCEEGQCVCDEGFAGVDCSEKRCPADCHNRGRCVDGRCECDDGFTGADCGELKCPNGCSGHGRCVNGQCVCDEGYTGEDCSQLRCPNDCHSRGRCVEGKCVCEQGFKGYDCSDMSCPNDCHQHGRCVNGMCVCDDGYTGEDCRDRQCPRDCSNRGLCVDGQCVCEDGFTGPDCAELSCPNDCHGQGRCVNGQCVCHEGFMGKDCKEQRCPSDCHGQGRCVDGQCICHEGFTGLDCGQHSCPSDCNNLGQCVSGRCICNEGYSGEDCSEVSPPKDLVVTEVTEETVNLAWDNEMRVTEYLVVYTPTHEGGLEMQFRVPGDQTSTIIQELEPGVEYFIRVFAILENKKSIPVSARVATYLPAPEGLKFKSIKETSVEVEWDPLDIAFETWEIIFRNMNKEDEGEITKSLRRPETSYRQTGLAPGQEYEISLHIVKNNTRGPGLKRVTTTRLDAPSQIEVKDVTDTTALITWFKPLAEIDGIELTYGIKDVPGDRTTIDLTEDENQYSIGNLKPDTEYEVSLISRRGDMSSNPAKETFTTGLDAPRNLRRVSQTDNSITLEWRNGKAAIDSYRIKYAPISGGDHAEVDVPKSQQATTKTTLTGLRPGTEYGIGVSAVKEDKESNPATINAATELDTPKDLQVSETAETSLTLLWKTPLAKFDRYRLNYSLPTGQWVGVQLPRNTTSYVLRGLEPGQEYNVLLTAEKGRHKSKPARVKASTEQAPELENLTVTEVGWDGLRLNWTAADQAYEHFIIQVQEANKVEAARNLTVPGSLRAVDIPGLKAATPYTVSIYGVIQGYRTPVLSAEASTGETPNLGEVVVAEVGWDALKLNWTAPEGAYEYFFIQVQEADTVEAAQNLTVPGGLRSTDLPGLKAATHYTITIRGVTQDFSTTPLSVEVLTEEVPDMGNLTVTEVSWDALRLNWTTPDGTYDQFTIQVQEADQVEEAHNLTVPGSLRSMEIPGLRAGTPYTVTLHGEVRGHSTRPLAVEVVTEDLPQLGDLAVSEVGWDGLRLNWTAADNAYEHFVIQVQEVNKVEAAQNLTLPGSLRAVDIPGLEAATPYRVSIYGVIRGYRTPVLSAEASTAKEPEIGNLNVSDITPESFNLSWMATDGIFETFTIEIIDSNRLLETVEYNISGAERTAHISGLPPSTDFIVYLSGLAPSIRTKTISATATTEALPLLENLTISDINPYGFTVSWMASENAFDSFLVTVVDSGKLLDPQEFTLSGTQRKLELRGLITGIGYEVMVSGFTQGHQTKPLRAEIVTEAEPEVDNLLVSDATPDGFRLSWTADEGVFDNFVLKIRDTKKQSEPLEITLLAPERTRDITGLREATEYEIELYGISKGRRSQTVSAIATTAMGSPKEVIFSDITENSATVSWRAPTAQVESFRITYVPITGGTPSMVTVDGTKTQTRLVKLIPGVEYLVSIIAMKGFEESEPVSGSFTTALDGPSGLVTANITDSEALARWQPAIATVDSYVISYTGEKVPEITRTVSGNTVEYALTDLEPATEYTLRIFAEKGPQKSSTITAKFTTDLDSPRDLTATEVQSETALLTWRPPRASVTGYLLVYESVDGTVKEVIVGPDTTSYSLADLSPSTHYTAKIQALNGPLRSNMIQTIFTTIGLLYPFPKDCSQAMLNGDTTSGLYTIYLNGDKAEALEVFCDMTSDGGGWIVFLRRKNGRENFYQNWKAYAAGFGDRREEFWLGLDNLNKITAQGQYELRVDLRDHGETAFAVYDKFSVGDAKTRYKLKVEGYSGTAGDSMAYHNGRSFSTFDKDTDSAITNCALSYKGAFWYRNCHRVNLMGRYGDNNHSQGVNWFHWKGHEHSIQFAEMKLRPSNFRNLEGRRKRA

Question: How did the Kd turn out when B1 was run?
Answer: 2 nM

Biological target: T1, Tenascin-C
Assay: filter; Family II
Conditions: tags: Chemicon (Temecula, CA)

Question: Which Kd does the source give for B2 here?
Answer: 5 nM

Question: B3 was tested. Which Kd did it give?
Answer: 20 nM

Question: B4 was tested. Which Kd did it give?
Answer: 20 nM

Question: B5 was tested. Which Kd did it give?
Answer: 10 nM

Question: How did the Kd turn out when B6 was run?
Answer: 8 nM

Question: With B7 as the binder, how does the Kd read?
Answer: 2 nM

Biological target: T1, Tenascin-C
Assay: filter; Family I
Conditions: tags: Chemicon (Temecula, CA)
Description: (§2) which contains the T7 polymerase promoter (underlined). RNA was prepared with T7 RNA polymerase as described previously in Fitzwater, T., and Polisky, B. 1996. A SELEX primer. Methods Enzymol. 267, 275-301, incorporated herein by reference in its entirety. All transcription reactions were performed in the presence of pyrimidine nucleotides that were 2′-fluoro (2′-F) modified on the sugar moiety. This substitution confers enhanced resistance to ribonucleases that utilize the 2′-hydroxyl moiety for cleavage of the phosphodiester bond. Specifically, each transcription mixture contained 3.3 mM 2′-F UTP and 3.3 mM 2′-F CTP along with 1 mM GTP and ATP. The initial randomized RNA library thus produced comprised 3×10¹⁴ molecules. The affinities of individual ligands for tenascin-C were determined by standard methods using nitrocellulose filter partitioning (Tuerk C, Gold L. Science Aug. 3, 1990 3;249(4968):505-10).

Question: Which Kd does the source give for B8 here?
Answer: 25 nM

Question: With B9 as the binder, how does the Kd read?
Answer: 10 nM

Question: With B10 as the binder, how does the Kd read?
Answer: 20 nM

Question: How did the Kd turn out when B11 was run?
Answer: 10 nM

Question: Which Kd does the source give for B12 here?
Answer: 15 nM

Question: For B13, which Kd is on record?
Answer: 40 nM

Question: Which Kd does the source give for B14 here?
Answer: 30 nM

Biological target: T1, Tenascin-C
Assay: filter
Conditions: tags: Chemicon (Temecula, CA)
Text: as §1

Question: With B15 as the binder, how does the Kd read?
Answer: 7.7 nM

Question: For B16, which Kd is on record?
Answer: 10 nM

Question: How did the Kd turn out when B17 was run?
Answer: 6 nM

Question: B18 was tested. Which Kd did it give?
Answer: 2.5 nM

Question: Which Kd does the source give for B19 here?
Answer: 37 nM

Question: With B20 as the binder, how does the Kd read?
Answer: 2.2 nM

Question: For B21, which Kd is on record?
Answer: 1.3 nM

Question: With B22 as the binder, how does the Kd read?
Answer: 20 nM

Question: How did the Kd turn out when B23 was run?
Answer: 55 nM

Question: B24 was tested. Which Kd did it give?
Answer: 1.7 nM

Question: B25 was tested. Which Kd did it give?
Answer: 7 nM

Question: With B26 as the binder, how does the Kd read?
Answer: 7 nM

Question: With B27 as the binder, how does the Kd read?
Answer: 4 nM

Question: With B28 as the binder, how does the Kd read?
Answer: 16.5 nM

Biological target: T1, Tenascin-C
Assay: filter; orphan
Conditions: tags: Chemicon (Temecula, CA)
Description: as §2

Question: B29 was tested. Which Kd did it give?
Answer: 145 nM

Question: Which Kd does the source give for B30 here?
Answer: 110 nM

Question: For B31, which Kd is on record?
Answer: 10 nM

Biological target: T1, Tenascin-C
Assay: filter; Family I; printed as 7N22
Conditions: tags: Chemicon (Temecula, CA)

Question: How did the Kd turn out when B32 was run?
Answer: 40 nM

Biological target: T1, Tenascin-C
Assay: filter
Conditions: tags: Chemicon (Temecula, CA)
Remark: another data set of the same source

Question: Does GGGAGGACGCACUCGUCGCCGUAAUGGAUGUUUUGCUCCCUG (ssRNA, 2'-F C and U [2'-F: 8,10,12-14,16,17,19,20,22,25,29,31-34,36-41]) [TN9 with CACU loop] bind?
Answer: binds

Question: Does GGGAGGACGGAGACGUCGCCGUAAUGGAUGUUUUGCUCCCUG (ssRNA, 2'-F C and U [2'-F: 8,14,16,17,19,20,22,25,29,31-34,36-41]) [TN9 with GAGA loop] bind?
Answer: binds

From patent publication US20030104377, “Tenascin-C nucleic acid ligands” (Gilead Sciences, Inc., published 2003)
